Assay results published in the supplement of paper PMC10065799, “High-throughput profiling of sequence recognition by tyrosine kinases and SH2 domains using bacterial peptide display” (eLife, 2023).

Legend:
Grb2 SH2 = Grb2 SH2 (UniProt P62993); test: SH2 binding enrichment of the phosphorylated peptide, bacterial display (enrichment ratio); higher = better substrate or ligand; peptides without Tyr show the background
c-Src SH2 = test: as above
SHP2-C SH2 = test: as above
AncSZ = test: phosphorylation enrichment, bacterial display (enrichment ratio); higher = better substrate or ligand; peptides without Tyr show the background
Fes = Fes (UniProt P07332); test: as above
c-Abl (mouse) = test: as above
EPHB2 = EPHB2 (UniProt P29323); test: as above
Hck = Hck (UniProt P08631); test: as above
Chain of Hck (P08631 whole entry, looked up): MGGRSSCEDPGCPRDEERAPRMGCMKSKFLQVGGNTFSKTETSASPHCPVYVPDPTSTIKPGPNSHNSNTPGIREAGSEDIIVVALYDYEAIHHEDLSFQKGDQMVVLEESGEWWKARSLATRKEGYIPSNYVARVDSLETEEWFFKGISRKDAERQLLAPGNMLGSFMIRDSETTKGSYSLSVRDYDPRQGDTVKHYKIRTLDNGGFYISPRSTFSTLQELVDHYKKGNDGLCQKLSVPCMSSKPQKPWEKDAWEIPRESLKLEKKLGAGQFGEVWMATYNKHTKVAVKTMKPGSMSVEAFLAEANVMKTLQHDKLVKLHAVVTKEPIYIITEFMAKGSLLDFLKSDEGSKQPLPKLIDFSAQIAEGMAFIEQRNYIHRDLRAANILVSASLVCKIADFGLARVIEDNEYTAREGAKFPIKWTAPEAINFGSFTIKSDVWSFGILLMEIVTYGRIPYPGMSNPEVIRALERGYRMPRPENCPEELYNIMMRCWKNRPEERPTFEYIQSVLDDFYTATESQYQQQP

Fer (mouse) = test: as above
Jak2 = Jak2 (UniProt O60674); test: as above
Chain of Jak2 (O60674 whole entry, looked up): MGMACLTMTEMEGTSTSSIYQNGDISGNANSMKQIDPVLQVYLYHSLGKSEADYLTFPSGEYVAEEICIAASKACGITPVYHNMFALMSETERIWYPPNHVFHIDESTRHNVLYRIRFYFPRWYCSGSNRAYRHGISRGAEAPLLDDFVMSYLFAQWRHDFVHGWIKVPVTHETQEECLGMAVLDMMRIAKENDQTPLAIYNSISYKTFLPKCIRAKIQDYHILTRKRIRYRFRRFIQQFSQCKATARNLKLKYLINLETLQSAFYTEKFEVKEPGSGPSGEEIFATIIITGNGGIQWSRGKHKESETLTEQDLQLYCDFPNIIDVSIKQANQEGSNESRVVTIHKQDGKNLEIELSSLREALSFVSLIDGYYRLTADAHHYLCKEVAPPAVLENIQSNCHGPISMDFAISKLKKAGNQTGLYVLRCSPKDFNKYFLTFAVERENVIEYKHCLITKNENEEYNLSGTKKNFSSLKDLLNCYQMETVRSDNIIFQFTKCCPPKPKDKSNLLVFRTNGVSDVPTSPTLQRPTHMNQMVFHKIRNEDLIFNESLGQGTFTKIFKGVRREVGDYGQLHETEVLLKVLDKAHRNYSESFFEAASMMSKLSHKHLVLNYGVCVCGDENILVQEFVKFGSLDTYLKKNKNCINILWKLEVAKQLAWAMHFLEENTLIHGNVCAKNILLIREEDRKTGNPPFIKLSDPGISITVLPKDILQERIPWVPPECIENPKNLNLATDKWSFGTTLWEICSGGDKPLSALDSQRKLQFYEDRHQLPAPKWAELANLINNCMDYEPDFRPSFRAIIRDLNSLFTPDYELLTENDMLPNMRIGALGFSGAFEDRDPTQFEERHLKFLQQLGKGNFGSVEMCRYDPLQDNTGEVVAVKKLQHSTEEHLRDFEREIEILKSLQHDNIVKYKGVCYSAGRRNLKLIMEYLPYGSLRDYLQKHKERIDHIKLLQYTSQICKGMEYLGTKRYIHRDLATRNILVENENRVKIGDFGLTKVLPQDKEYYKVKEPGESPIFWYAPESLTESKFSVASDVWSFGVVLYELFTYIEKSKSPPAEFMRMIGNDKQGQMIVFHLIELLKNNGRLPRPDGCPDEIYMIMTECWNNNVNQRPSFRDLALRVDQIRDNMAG

MERTK = MERTK (UniProt Q12866); test: as above
Chain of MERTK (Q12866 whole entry, looked up): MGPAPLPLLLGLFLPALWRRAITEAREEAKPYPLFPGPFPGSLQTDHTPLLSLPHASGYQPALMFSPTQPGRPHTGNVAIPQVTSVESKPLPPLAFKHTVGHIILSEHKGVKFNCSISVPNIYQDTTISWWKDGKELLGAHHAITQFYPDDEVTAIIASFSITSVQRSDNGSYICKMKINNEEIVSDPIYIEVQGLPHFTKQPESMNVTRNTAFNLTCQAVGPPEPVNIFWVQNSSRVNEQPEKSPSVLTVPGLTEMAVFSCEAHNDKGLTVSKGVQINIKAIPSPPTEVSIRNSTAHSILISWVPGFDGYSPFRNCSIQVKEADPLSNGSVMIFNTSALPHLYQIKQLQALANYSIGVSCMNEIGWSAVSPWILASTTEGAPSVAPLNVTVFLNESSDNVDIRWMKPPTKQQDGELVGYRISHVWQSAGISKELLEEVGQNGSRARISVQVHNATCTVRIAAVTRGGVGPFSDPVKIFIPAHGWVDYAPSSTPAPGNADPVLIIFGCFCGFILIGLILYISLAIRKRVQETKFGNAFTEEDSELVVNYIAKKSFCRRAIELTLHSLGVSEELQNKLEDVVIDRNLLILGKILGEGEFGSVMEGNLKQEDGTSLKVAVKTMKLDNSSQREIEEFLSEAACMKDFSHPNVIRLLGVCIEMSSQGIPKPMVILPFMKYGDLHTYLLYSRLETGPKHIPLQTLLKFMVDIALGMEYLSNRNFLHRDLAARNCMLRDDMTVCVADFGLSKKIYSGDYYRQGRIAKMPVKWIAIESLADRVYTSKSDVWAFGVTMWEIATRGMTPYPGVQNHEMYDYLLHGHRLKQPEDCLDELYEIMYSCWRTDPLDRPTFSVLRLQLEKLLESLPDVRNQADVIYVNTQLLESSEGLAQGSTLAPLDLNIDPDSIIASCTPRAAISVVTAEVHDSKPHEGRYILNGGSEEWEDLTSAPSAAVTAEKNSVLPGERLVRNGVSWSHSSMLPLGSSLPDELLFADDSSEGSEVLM

c-Src = test: as above
EPHB1 = EPHB1 (UniProt P54762); test: as above
Chain of EPHB1 (P54762 whole entry, looked up): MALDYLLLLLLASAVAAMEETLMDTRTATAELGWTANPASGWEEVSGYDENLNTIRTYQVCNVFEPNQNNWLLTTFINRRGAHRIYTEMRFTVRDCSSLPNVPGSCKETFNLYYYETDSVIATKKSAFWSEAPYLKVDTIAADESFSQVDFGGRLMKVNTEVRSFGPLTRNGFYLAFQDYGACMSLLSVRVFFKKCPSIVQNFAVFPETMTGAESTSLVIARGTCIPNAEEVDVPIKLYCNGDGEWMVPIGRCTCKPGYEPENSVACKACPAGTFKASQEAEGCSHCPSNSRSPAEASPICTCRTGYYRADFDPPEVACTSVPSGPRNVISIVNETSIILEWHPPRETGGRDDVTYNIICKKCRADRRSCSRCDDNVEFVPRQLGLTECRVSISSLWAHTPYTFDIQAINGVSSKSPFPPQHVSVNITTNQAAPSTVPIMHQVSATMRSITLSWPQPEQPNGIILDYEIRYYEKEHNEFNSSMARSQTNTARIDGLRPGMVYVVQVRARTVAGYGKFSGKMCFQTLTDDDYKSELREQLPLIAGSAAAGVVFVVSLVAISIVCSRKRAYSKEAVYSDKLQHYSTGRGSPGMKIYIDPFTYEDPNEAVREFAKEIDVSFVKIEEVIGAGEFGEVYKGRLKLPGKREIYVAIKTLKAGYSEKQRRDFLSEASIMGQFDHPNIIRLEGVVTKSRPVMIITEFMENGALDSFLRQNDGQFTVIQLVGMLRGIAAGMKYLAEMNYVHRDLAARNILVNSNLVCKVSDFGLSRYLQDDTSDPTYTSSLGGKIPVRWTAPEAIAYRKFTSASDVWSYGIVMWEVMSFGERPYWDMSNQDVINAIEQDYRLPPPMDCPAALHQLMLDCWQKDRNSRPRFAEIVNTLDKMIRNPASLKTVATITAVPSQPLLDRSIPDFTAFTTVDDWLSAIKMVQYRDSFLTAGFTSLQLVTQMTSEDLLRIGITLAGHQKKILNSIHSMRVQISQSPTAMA

FGFR1 = FGFR1 (UniProt P11362); test: as above
Fyn = Fyn (UniProt P06241); test: as above
Chain of Fyn (P06241 whole entry, looked up): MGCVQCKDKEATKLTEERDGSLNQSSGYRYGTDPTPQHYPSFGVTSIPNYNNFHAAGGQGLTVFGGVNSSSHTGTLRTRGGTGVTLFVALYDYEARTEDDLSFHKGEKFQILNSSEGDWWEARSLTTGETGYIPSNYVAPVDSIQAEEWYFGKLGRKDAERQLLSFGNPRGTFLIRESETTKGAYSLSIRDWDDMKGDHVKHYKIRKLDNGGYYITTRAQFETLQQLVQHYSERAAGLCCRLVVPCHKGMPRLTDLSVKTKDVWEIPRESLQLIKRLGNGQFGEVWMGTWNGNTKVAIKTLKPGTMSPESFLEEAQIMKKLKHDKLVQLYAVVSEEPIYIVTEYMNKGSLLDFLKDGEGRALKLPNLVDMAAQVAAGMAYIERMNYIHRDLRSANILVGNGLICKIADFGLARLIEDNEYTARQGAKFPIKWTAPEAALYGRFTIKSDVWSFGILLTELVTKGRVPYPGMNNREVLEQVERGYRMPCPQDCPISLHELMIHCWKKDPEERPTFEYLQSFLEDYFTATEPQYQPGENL

FGFR3 = FGFR3 (UniProt P22607); test: as above
Chain of FGFR3 (P22607 whole entry, looked up, the tested form may be a part): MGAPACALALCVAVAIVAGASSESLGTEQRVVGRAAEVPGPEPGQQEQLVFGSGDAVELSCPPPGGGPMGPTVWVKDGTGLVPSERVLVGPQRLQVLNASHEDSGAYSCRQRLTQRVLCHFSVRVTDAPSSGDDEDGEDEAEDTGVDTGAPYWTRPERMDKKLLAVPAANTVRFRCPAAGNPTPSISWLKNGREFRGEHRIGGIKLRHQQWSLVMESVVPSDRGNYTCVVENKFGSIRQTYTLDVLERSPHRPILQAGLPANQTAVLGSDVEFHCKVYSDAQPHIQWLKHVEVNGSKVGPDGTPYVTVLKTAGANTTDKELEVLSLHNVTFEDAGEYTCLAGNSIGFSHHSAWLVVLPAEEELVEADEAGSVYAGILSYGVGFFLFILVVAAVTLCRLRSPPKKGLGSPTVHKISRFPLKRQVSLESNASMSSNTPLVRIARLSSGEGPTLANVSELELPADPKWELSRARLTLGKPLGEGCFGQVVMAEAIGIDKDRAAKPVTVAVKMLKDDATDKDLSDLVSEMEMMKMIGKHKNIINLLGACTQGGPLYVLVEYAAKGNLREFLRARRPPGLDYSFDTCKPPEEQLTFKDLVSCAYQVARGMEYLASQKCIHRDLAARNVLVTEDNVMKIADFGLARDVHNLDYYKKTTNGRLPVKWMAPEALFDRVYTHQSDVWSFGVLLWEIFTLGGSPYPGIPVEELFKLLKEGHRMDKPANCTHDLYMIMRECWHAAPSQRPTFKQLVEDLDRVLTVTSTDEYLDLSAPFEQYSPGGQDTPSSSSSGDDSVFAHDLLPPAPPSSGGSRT
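Wherever SH2 binding enrichment of the phosphorylated peptide, bacterial display is given: peptide library displayed on the E. coli surface as eCPX fusions, selected cells deep-sequenced, score is each peptide's frequency after selection divided by its frequency in the input.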
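Wherever phosphorylation enrichment, bacterial display is given: 11-residue human phosphosite peptides and single-mutation variants displayed on the E. coli surface, counted by deep sequencing, each peptide's frequency after selection divided by its frequency in the unselected input library; frequency after pTyr selection over input frequency; kinase dosed for 20-30% of maximal phosphorylation in three min.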

| Sequence | SH2 binding enrichment (Grb2 SH2) | SH2 binding enrichment (c-Src SH2) | SH2 binding enrichment (SHP2-C SH2) | phosphorylation enrichment (AncSZ) | phosphorylation enrichment (Fes) | phosphorylation enrichment (c-Abl (mouse)) | phosphorylation enrichment (EPHB2) | phosphorylation enrichment (Hck) | phosphorylation enrichment (Fer (mouse)) | phosphorylation enrichment (Jak2) | phosphorylation enrichment (MERTK) | phosphorylation enrichment (c-Src) | phosphorylation enrichment (EPHB1) | phosphorylation enrichment (FGFR1) | phosphorylation enrichment (Fyn) | phosphorylation enrichment (FGFR3) |
| --- | --- | --- | --- | --- | --- | --- | --- | --- | --- | --- | --- | --- | --- | --- | --- | --- |
| KDKLPYPYDDP [GPX2_Y125] | 0.889 | 1.67 | 0.757 | 1 | 1.17 | 0.584 | 0.487 | 0.435 | 0.455 | 1.04 | 0.42 | 0.486 | 0.599 | 0.562 | 0.414 | 0.655 |
| SSYSGYIMMPN [LEF1_Y114] | 0.905 | 1.99 | 1 | 0.858 | 0.718 | 0.486 | 1.09 | 0.51 | 0.604 | 5.39 | 2.47 | 0.684 | 0.923 | 3.79 | 0.571 | 2.38 |
| VHNLDYFKETT [FGFR3_Y647_K650E_YF] | 1.11 | 0.457 | 0.668 | 0.853 | 0.854 | 0.598 | 0.5 | 0.446 | 0.438 | 0.723 | 0.425 | 0.445 | 0.469 | 0.597 | 0.437 | 0.614 |
| AIIGIYNLRDD [CDH23_Y2949_I2950N] | 1.14 | 0.805 | 0.951 | 0.821 | 1 | 0.691 | 0.437 | 5.28 | 0.45 | 0.795 | 0.573 | 5.84 | 0.481 | 0.478 | 6.82 | 0.599 |
| PELIDYGKLWK [ACTN1_Y193_R197W] | 0.958 | 0.538 | 0.989 | 1.31 | 1.26 | 0.912 | 0.683 | 0.393 | 0.531 | 0.761 | 0.522 | 0.59 | 0.718 | 0.535 | 0.601 | 0.766 |
| NCLRVYVAGRF [CRB1_Y711_E710V] | 1.11 | 0.678 | 0.97 | 1.71 | 1.15 | 1.03 | 0.627 | 0.414 | 0.434 | 1.08 | 0.339 | 0.567 | 0.497 | 0.447 | 0.535 | 0.758 |
| EGLRRYLENGK [HLA-A_Y195_W191G] | 0.584 | 0.405 | 0.615 | 0.463 | 0.473 | 0.419 | 0.323 | 0.398 | 0.291 | 0.6 | 0.52 | 0.336 | 0.346 | 0.315 | 0.397 | 0.427 |
| ILCTVYAFKTR [GRM3_Y754] | 1.3 | 0.794 | 0.985 | 1.52 | 1.49 | 0.696 | 0.478 | 0.624 | 0.61 | 1.33 | 0.609 | 0.599 | 0.577 | 0.543 | 0.528 | 0.715 |
| PKGIGYGQGAG [CSRP3_Y73] | 0.823 | 0.489 | 0.43 | 0.458 | 0.721 | 0.422 | 0.469 | 0.4 | 0.492 | 0.474 | 0.462 | 0.308 | 0.396 | 0.731 | 0.525 | 0.513 |
| SVKVFYKKCWS [EPHA7_Y202_YF] | 0.747 | 0.396 | 0.707 | 1.14 | 1.49 | 0.965 | 0.647 | 0.457 | 0.532 | 1.21 | 0.409 | 0.59 | 0.621 | 0.507 | 0.424 | 0.841 |
| FFCRWYRNQKS [EREG_Y144_R147Q_YF] | 0.603 | 0.496 | 0.657 | 0.775 | 0.6 | 0.855 | 0.489 | 0.596 | 0.513 | 0.488 | 0.497 | 0.57 | 0.493 | 0.347 | 0.482 | 0.478 |
| YTGNTYRVGDT [FN1_Y106] | 0.766 | 0.406 | 0.55 | 0.666 | 0.775 | 0.569 | 0.424 | 0.486 | 0.415 | 0.563 | 0.389 | 0.467 | 0.448 | 0.439 | 0.441 | 0.534 |
| RLLRGHDQYAY [HLA-B_Y137] | 1.19 | 1.29 | 1.37 | 0.672 | 0.808 | 0.496 | 0.763 | 0.6 | 0.467 | 0.56 | 0.473 | 0.456 | 0.673 | 0.69 | 0.57 | 0.851 |
| RGRSTCYWPRP [GAGE12J_Y9_Y9C] | 0.642 | 0.658 | 0.714 | 1.06 | 0.756 | 0.623 | 0.6 | 0.736 | 0.582 | 0.655 | 0.732 | 0.816 | 0.688 | 0.704 | 0.599 | 0.981 |
| LKLKAYRFSIS [LCT_Y974_V971L] | 0.673 | 0.502 | 0.763 | 1.76 | 1.96 | 2.51 | 0.948 | 0.882 | 1.26 | 2.76 | 1.15 | 1.55 | 0.883 | 0.845 | 0.746 | 1.21 |
| FRPPFYHRNCM [HGD_Y334_YF] | 0.935 | 1 | 0.913 | 0.921 | 1.04 | 0.649 | 0.489 | 0.48 | 0.489 | 0.761 | 0.426 | 0.402 | 0.417 | 0.426 | 0.472 | 0.605 |

Now from value to sequence, other results behind:

| SH2 binding enrichment (Grb2 SH2) | SH2 binding enrichment (c-Src SH2) | SH2 binding enrichment (SHP2-C SH2) | Sequence | phosphorylation enrichment (AncSZ) | phosphorylation enrichment (Fes) | phosphorylation enrichment (c-Abl (mouse)) | phosphorylation enrichment (EPHB2) | phosphorylation enrichment (Hck) | phosphorylation enrichment (Fer (mouse)) | phosphorylation enrichment (Jak2) | phosphorylation enrichment (MERTK) | phosphorylation enrichment (c-Src) | phosphorylation enrichment (EPHB1) | phosphorylation enrichment (FGFR1) | phosphorylation enrichment (Fyn) | phosphorylation enrichment (FGFR3) |
| --- | --- | --- | --- | --- | --- | --- | --- | --- | --- | --- | --- | --- | --- | --- | --- | --- |
| 1.02 | 0.725 | 0.909 | LHNLFYQLEAE [PKP2_Y616_S615F] | 2.35 | 2.87 | 2.03 | 1.9 | 2.2 | 1.66 | 2.4 | 1.6 | 10.4 | 1.35 | 1.02 | 8.59 | 1.07 |
| 2.18 | 0.718 | 0.676 | TVHCDYLNIPH [TAF1L_Y1385] | 0.959 | 1.02 | 0.521 | 0.706 | 0.55 | 0.46 | 0.941 | 0.442 | 0.718 | 3.02 | 6.63 | 0.464 | 3.97 |
| 0.777 | 0.485 | 0.533 | CGTPDNIAPEI [PRKCG_Y521_Y521N] | 1.17 | 1.49 | 0.782 | 0.762 | 0.609 | 0.548 | 0.989 | 0.459 | 0.458 | 0.72 | 0.51 | 0.593 | 0.933 |
| 0.918 | 0.555 | 0.752 | DKITQYVEEVK [STX2_Y49] | 1.11 | 1.23 | 0.698 | 0.581 | 0.421 | 0.479 | 0.876 | 0.505 | 0.425 | 0.507 | 0.552 | 0.509 | 0.78 |
| 0.684 | 0.568 | 0.745 | EAAFVYAISSA [WNT4_Y113] | 1.34 | 1.3 | 2.7 | 0.59 | 1.38 | 0.649 | 1.36 | 0.566 | 2.79 | 0.623 | 0.586 | 1.9 | 0.749 |
| 1.29 | 3.33 | 0.962 | DLDLTYIYPNI [PTEN_Y27] | 3.91 | 0.871 | 0.612 | 0.961 | 1.37 | 0.424 | 1.57 | 2.41 | 1.4 | 1.71 | 3.8 | 2.84 | 2.61 |
| 0.73 | 0.398 | 0.584 | PVGVLYKVKVY [PTS_Y128] | 1.28 | 1.79 | 0.914 | 0.877 | 0.687 | 0.699 | 1.52 | 0.669 | 0.451 | 1.06 | 0.337 | 0.652 | 1.27 |
| 0.704 | 0.411 | 0.609 | YRASYYRRGDR [LTK_Y677] | 0.653 | 0.485 | 0.693 | 0.535 | 0.494 | 0.496 | 0.436 | 0.603 | 0.598 | 0.446 | 0.511 | 0.534 | 0.431 |
| 0.929 | 0.58 | 0.699 | EILLSYPRTGY [TGM1_Y365_L366P] | 0.626 | 0.789 | 0.658 | 0.456 | 0.371 | 0.49 | 0.867 | 0.379 | 0.448 | 0.397 | 0.445 | 0.418 | 0.47 |
| 0.829 | 1.15 | 0.734 | ESDYTYSSSYE [SRPK2_Y427] | 2.42 | 1.15 | 0.725 | 1.45 | 0.86 | 0.68 | 0.852 | 0.486 | 1.43 | 1.3 | 1.12 | 1.11 | 1.06 |
| 0.92 | 0.399 | 0.741 | GHEFIYVDRMQ [PDGFRB_Y581_P584R_YF] | 0.777 | 0.836 | 0.651 | 0.685 | 1.11 | 0.382 | 0.541 | 0.479 | 2.02 | 0.47 | 0.555 | 1.42 | 0.624 |
| 0.87 | 0.513 | 0.648 | GRGMPYGGRGD [TGM1_Y312_R307G] | 0.476 | 0.476 | 0.513 | 0.325 | 0.4 | 0.399 | 0.488 | 0.379 | 0.402 | 0.338 | 0.355 | 0.343 | 0.449 |
| 0.836 | 0.485 | 0.695 | TGQERYRAITS [RAB11B_Y73_A68T] | 0.516 | 0.588 | 0.368 | 0.291 | 0.519 | 0.346 | 0.369 | 0.337 | 0.344 | 0.322 | 0.423 | 0.451 | 0.392 |
| 0.828 | 0.521 | 0.607 | AASHRYDLGGL [QPRT_Y162] | 0.491 | 0.56 | 0.432 | 0.375 | 0.35 | 0.336 | 0.521 | 0.327 | 0.391 | 0.356 | 0.416 | 0.352 | 0.4 |
| 0.878 | 0.419 | 0.548 | FEEDSYVTRSQ [RET_Y905_K907T_YF] | 1.18 | 1.33 | 0.912 | 0.829 | 0.531 | 0.529 | 1.27 | 0.47 | 0.617 | 0.651 | 0.452 | 0.5 | 1.08 |
| 0.958 | 0.493 | 1.04 | PSALGYSPSLR [LLGL2_Y40] | 0.669 | 0.887 | 0.764 | 0.628 | 0.472 | 0.512 | 0.908 | 0.712 | 0.692 | 0.769 | 0.404 | 0.75 | 0.46 |
| 1.02 | 0.752 | 2.08 | TVLWWYTGTRP [UGT1A1_Y337_R336W] | 1.3 | 1.32 | 0.599 | 0.513 | 0.41 | 0.398 | 1.23 | 0.277 | 0.311 | 0.458 | 0.389 | 0.4 | 0.68 |
